The labels stand for the following.
B1: GpH7-A5/GpH7-B3 variant S337_18N/GpL16-k0 (antibody, human IgG1, kappa)
heavy 1: not shown
heavy 2: not shown
light: DIVMTQSPLSLPVTPGEPASISCQASESLVHSNRNTYLHWYLQKPGQSPQLLIYKVSNRFSGVPDRFSGSGSGTDFTLKISRVEAEDVGVYYCSQNTHVPPTFGQGTKVEIERTVAAPSVFIFPPSDEQLKSGTASVVCLLNNFYPREAKVQWKVDNALQSGNSQESVTEQDSKDSTYSLSSTLTLSKADYEKHKVYACEVTHQGLSSPVTKSFNRGEC
notes: heterodimerized; mutation in one H chain; also called He Ab
B2: GpH7-A5/GpH7-B3 variant S337_06M/GpL16-k0 (antibody, human IgG1, kappa)
heavy 1: not shown
heavy 2: not shown
light: B1 light
notes: as for B1
B3: GpH7-A5/GpH7-B3 variant T335_10E/GpL16-k0 (antibody, human IgG1, kappa)
heavy 1: not shown
heavy 2: not shown
light: B1 light
notes: as for B1
B4: GpH7-A5/GpH7-B3 variant P331_15Y/GpL16-k0 (antibody, human IgG1, kappa)
heavy 1: not shown
heavy 2: not shown
light: B1 light
notes: as for B1
B5: GpH7-A5/GpH7-B3 variant L235_20W/GpL16-k0 (antibody, human IgG1, kappa)
heavy 1: not shown
heavy 2: not shown
light: B1 light
notes: as for B1
B6: GpH7-A5/GpH7-B3 variant S337_15Y/GpL16-k0 (antibody, human IgG1, kappa)
heavy 1: not shown
heavy 2: not shown
light: B1 light
notes: as for B1
B7: GpH7-A5/GpH7-B3 variant K334_08L/GpL16-k0 (antibody, human IgG1, kappa)
heavy 1: not shown
heavy 2: not shown
light: B1 light
notes: as for B1
B8: GpH7-A5/GpH7-B3 variant P331_20W/GpL16-k0 (antibody, human IgG1, kappa)
heavy 1: not shown
heavy 2: not shown
light: B1 light
notes: as for B1
B9: GpH7-A5/GpH7-B3 variant L328_13S/GpL16-k0 (antibody, human IgG1, kappa)
heavy 1: not shown
heavy 2: not shown
light: B1 light
notes: as for B1
B10: GpH7-A5/GpH7-B3 variant K334_05P/GpL16-k0 (antibody, human IgG1, kappa)
heavy 1: not shown
heavy 2: not shown
light: B1 light
notes: as for B1
B11: GpH7-A5/GpH7-B3 variant S267_06M/GpL16-k0 (antibody, human IgG1, kappa)
heavy 1: not shown
heavy 2: not shown
light: B1 light
notes: as for B1
B12: GpH7-A5/GpH7-B3 variant P331_04F/GpL16-k0 (antibody, human IgG1, kappa)
heavy 1: not shown
heavy 2: not shown
light: B1 light
notes: as for B1
B13: GpH7-A5/GpH7-B3 variant S298_08L/GpL16-k0 (antibody, human IgG1, kappa)
heavy 1: not shown
heavy 2: not shown
light: B1 light
notes: as for B1
B14: GpH7-A5/GpH7-B3 variant S337_09D/GpL16-k0 (antibody, human IgG1, kappa)
heavy 1: not shown
heavy 2: not shown
light: B1 light
notes: as for B1
B15: GpH7-A5/GpH7-B3 variant S239_10E/GpL16-k0 (antibody, human IgG1, kappa)
heavy 1: not shown
heavy 2: not shown
light: B1 light
notes: as for B1
B16: GpH7-A5/GpH7-B3 variant S337_07I/GpL16-k0 (antibody, human IgG1, kappa)
heavy 1: not shown
heavy 2: not shown
light: B1 light
notes: as for B1
B17: GpH7-A5/GpH7-B3 variant T335_02A/GpL16-k0 (antibody, human IgG1, kappa)
heavy 1: not shown
heavy 2: not shown
light: B1 light
notes: as for B1
B18: GpH7-A5/GpH7-B3 variant S337_10E/GpL16-k0 (antibody, human IgG1, kappa)
heavy 1: not shown
heavy 2: not shown
light: B1 light
notes: as for B1
B19: GpH7-A5/GpH7-B3 variant S267_03V/GpL16-k0 (antibody, human IgG1, kappa)
heavy 1: not shown
heavy 2: not shown
light: B1 light
notes: as for B1
B20: GpH7-A5/GpH7-B3 variant S239_18N/GpL16-k0 (antibody, human IgG1, kappa)
heavy 1: not shown
heavy 2: not shown
light: B1 light
notes: as for B1
B21: GpH7-A5/GpH7-B3 variant P331_02A/GpL16-k0 (antibody, human IgG1, kappa)
heavy 1: not shown
heavy 2: not shown
light: B1 light
notes: as for B1
B22: GpH7-A5/GpH7-B3 variant K334_04F/GpL16-k0 (antibody, human IgG1, kappa)
heavy 1: not shown
heavy 2: not shown
light: B1 light
notes: as for B1
B23: GpH7-A5/GpH7-B3 variant S337_19Q/GpL16-k0 (antibody, human IgG1, kappa)
heavy 1: not shown
heavy 2: not shown
light: B1 light
notes: as for B1
B24: GpH7-A5/GpH7-B3 variant T335_07I/GpL16-k0 (antibody, human IgG1, kappa)
heavy 1: not shown
heavy 2: not shown
light: B1 light
notes: as for B1
B25: GpH7-A5/GpH7-B3 variant S337_20W/GpL16-k0 (antibody, human IgG1, kappa)
heavy 1: not shown
heavy 2: not shown
light: B1 light
notes: as for B1
B26: GpH7-A5/GpH7-B3 variant K334_13S/GpL16-k0 (antibody, human IgG1, kappa)
heavy 1: not shown
heavy 2: not shown
light: B1 light
notes: as for B1
B27: GpH7-A5/GpH7-B3 variant P331_16H/GpL16-k0 (antibody, human IgG1, kappa)
heavy 1: not shown
heavy 2: not shown
light: B1 light
notes: as for B1

He/Con_2aR data for 27 molecules are collected here from patent US20180155451A1 (published 2018).

This assay has as its target T1, FcγRIIa R (extracellular domain with a His tag at the C terminus) (human, UniProt P12318 34-217).
T1 construct: extracellular domain; expressed in FreeStyle293 cells; also called FcgRIIa R; FcγRIIa type R; not shown: His tag at the C terminus
T1 sequence (looked up): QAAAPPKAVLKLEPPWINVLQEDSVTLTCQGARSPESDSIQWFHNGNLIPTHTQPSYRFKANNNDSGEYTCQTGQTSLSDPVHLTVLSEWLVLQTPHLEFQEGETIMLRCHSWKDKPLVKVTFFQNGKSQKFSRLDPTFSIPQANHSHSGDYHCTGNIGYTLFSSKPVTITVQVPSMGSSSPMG
Kind of assay: SPR Biacore, relative binding. Background: SPR reads the build-up and loss of mass on a sensor chip optically.
B1: the He/Con_2aR was 107 % of GpH7-A5/GpH7-B3/GpL16-k0 (=100).

B2: the He/Con_2aR was 105 % of GpH7-A5/GpH7-B3/GpL16-k0 (=100).

As to B3, the He/Con_2aR was 111 % of GpH7-A5/GpH7-B3/GpL16-k0 (=100).

Turning to B4, the He/Con_2aR is 112 % of GpH7-A5/GpH7-B3/GpL16-k0 (=100).

In the case of B5, the He/Con_2aR is 131 % of GpH7-A5/GpH7-B3/GpL16-k0 (=100).

B6: the He/Con_2aR is 105 % of GpH7-A5/GpH7-B3/GpL16-k0 (=100).

Take B7: the He/Con_2aR was 106 % of GpH7-A5/GpH7-B3/GpL16-k0 (=100).

On to B8, for which the He/Con_2aR is 110 % of GpH7-A5/GpH7-B3/GpL16-k0 (=100).

For the molecule B9, the He/Con_2aR is 117 % of GpH7-A5/GpH7-B3/GpL16-k0 (=100).

In the case of B10, the He/Con_2aR is 103 % of GpH7-A5/GpH7-B3/GpL16-k0 (=100).

On to B11, for which the He/Con_2aR is 122 % of GpH7-A5/GpH7-B3/GpL16-k0 (=100).

With B12, the He/Con_2aR was 111 % of GpH7-A5/GpH7-B3/GpL16-k0 (=100).

For B13, the He/Con_2aR was 105 % of GpH7-A5/GpH7-B3/GpL16-k0 (=100).

As to B14, the He/Con_2aR was 115 % of GpH7-A5/GpH7-B3/GpL16-k0 (=100).

As to B15, the He/Con_2aR was 135 % of GpH7-A5/GpH7-B3/GpL16-k0 (=100).

On to B16, for which the He/Con_2aR is 109 % of GpH7-A5/GpH7-B3/GpL16-k0 (=100).

As for B17, the He/Con_2aR is 102 % of GpH7-A5/GpH7-B3/GpL16-k0 (=100).

As for B18, the He/Con_2aR was 112 % of GpH7-A5/GpH7-B3/GpL16-k0 (=100).

As for B19, the He/Con_2aR was 116 % of GpH7-A5/GpH7-B3/GpL16-k0 (=100).

For B20, the He/Con_2aR was 111 % of GpH7-A5/GpH7-B3/GpL16-k0 (=100).

Consider B21, for which the He/Con_2aR was 106 % of GpH7-A5/GpH7-B3/GpL16-k0 (=100).

For the molecule B22, the He/Con_2aR was 110 % of GpH7-A5/GpH7-B3/GpL16-k0 (=100).

Take B23: the He/Con_2aR is 106 % of GpH7-A5/GpH7-B3/GpL16-k0 (=100).

B24: the He/Con_2aR is 109 % of GpH7-A5/GpH7-B3/GpL16-k0 (=100).

In the case of B25, the He/Con_2aR was 110 % of GpH7-A5/GpH7-B3/GpL16-k0 (=100).

Regarding B26, the He/Con_2aR is 109 % of GpH7-A5/GpH7-B3/GpL16-k0 (=100).

In the case of B27, the He/Con_2aR was 114 % of GpH7-A5/GpH7-B3/GpL16-k0 (=100).
